This is an account of results in publication PMC9352680, “A comprehensive thermodynamic model for RNA binding by the Saccharomyces cerevisiae Pumilio protein PUF4”.

B1: Ic_S4_P5E.1_K5.1_C5.1_H5.1_A5.1_[T5A]_[A7C]_F5.1_[T8A]_[A10C]_T5.1 (ssRNA)
RNA: UUUGACAACUGAUCGUUCUUUCUUGUAAUCAUCUUCUUUCUCGAUCAGUUGUCUUU
B2: Ic_S4_P5E.1_K5.1_C5.1_H5.1_A5.1_[T5A]_[A7T]_F5.1_[T8A]_[A10C]_T5.1 (ssRNA)
RNA: B1 RNA with C30U
B3: Ic_S4_P5E.1_K5.1_C5.1_H5.1_A5.1_[T6G]_[A7G]_F5.1_[T8C]_[A10C]_T5.1 (ssRNA)
RNA: B1 RNA with A28U, U29G, C30G, A31C
B4: Ic_S4_P5E.1_K5.1_C5.1_H5.1_A5.1_[T5A]_[T6C]_[A7C]_F5.1_[A10T]_T5.1 (ssRNA)
RNA: B1 RNA with U29C, A31U, C33U
B5: Ic_S4_P5E.1_K5.1_C5.1_H5.1_A5.1_[T5A]_[T6C]_F5.1_[T8G]_[T9C]_[A10T]_T5.1 (ssRNA)
RNA: B1 RNA with U29C, C30A, A31G, U32C, C33U
B6: Ic_S4_P5E.1_K5.1_C5.1_H5.1_A5.1_[T5C]_[T6G]_[A7C]_F5.1_[T8C]_[T9C]_T5.1 (ssRNA)
RNA: B1 RNA with A28C, U29G, A31C, U32C, C33A
B7: Ic_S4_P5E.1_K5.1_C5.1_H5.1_A5.1_[T5A]_[T6A]_F5.1_[T8C]_[T9A]_[A10C]_T5.1 (ssRNA)
RNA: B1 RNA with U29A, C30A, A31C, U32A
B8: Ic_S4_P5E.1_K5.1_C5.1_H5.1_A5.1_[T6A]_[A7T]_F5.1_[T8C]_[T9G]_[A10G]_T5.1 (ssRNA)
RNA: B1 RNA with A28U, U29A, C30U, A31C, U32G, C33G
B9: Ic_S4_P5E.1_K5.1_C5.1_H5.1_A5.1_[T5G]_[T6C]_F5.1_[T8C]_[A10T]_T5.1 (ssRNA)
RNA: B1 RNA with A28G, U29C, C30A, A31C, C33U
B10: Ic_S4_P5E.1_K5.1_C5.1_H5.1_A5.1_[T5C]_[T6C]_[A7T]_F5.1_[T9A]_[A10G]_T5.1 (ssRNA)
RNA: B1 RNA with A28C, U29C, C30U, A31U, U32A, C33G
B11: Ic_S4_P5E.1_K5.1_C5.1_H5.1_A5.1_[T6A]_[A7T]_F5.1_[T8A]_[T9C]_[A10G]_T5.1 (ssRNA)
RNA: B1 RNA with A28U, U29A, C30U, U32C, C33G
B12: Ic_S4_P5E.1_K5.1_C5.1_H5.1_A5.1_[T5A]_[T6C]_[A7T]_F5.1_[T8A]_[T9A]_T5.1 (ssRNA)
RNA: B1 RNA with U29C, C30U, U32A, C33A
B13: Ic_S4_P5E.1_K5.1_C5.1_H5.1_A5.1_[T5G]_[T6C]_F5.1_[T8G]_[A10C]_T5.1 (ssRNA)
RNA: B1 RNA with A28G, U29C, C30A, A31G
B14: Ic_S4_P5E.1_K5.1_C5.1_H5.1_A5.1_[T5C]_[T6A]_F5.1_[T9G]_[A10G]_T5.1 (ssRNA)
RNA: B1 RNA with A28C, U29A, C30A, A31U, U32G, C33G
B15: Ic_S4_P5E.1_K5.1_C5.1_H5.1_A5.1_[T5A]_[T6A]_[A7T]_F5.1_[T9A]_T5.1 (ssRNA)
RNA: B1 RNA with U29A, C30U, A31U, U32A, C33A
B16: Ic_S4_P5E.1_K5.1_C5.1_H5.1_A5.1_[T5C]_[T6A]_F5.1_[T8A]_[A10C]_T5.1 (ssRNA)
RNA: B1 RNA with A28C, U29A, C30A
B17: Ic_S4_P5E.1_K5.1_C5.1_H5.1_A5.1_[T6G]_[A7T]_F5.1_[T8A]_[T9A]_T5.1 (ssRNA)
RNA: B1 RNA with A28U, U29G, C30U, U32A, C33A
B18: Ic_S4_P5E.1_K5.1_C5.1_H5.1_A5.1_[T6A]_[A7C]_F5.1_[T8C]_[T9G]_[A10G]_T5.1 (ssRNA)
RNA: B1 RNA with A28U, U29A, A31C, U32G, C33G
B19: Ic_S4_P5E.1_K5.1_C5.1_H5.1_A5.1_[T5C]_[A7C]_F5.1_[A10T]_T5.1 (ssRNA)
RNA: B1 RNA with A28C, A31U, C33U
B20: Ic_S4_P5E.1_K5.1_C5.1_H5.1_A5.1_[T5G]_[T6C]_[A7T]_F5.1_[T8C]_T5.1 (ssRNA)
RNA: B1 RNA with A28G, U29C, C30U, A31C, C33A
B21: Ic_S4_P5E.1_K5.1_C5.1_H5.1_A5.1_[T6C]_F5.1_[T8G]_[A10C]_T5.1 (ssRNA)
RNA: B1 RNA with A28U, U29C, C30A, A31G
B22: Ic_S4_P5E.1_K5.1_C5.1_H5.1_A5.1_[A7C]_F5.1_[T9G]_[A10G]_T5.1 (ssRNA)
RNA: B1 RNA with A28U, A31U, U32G, C33G
B23: Ic_S4_P5E.1_K5.1_C5.1_H5.1_A5.1_[T6G]_[A7T]_F5.1_[T8A]_[T9C]_[A10C]_T5.1 (ssRNA)
RNA: B1 RNA with A28U, U29G, C30U, U32C

Substitutions are numbered along the chain they refer to. Names may count otherwise.

The data set has as its target T1, PUF4 RNA-binding domain (Saccharomyces cerevisiae, UniProt P25339 537-888).
T1 sequence: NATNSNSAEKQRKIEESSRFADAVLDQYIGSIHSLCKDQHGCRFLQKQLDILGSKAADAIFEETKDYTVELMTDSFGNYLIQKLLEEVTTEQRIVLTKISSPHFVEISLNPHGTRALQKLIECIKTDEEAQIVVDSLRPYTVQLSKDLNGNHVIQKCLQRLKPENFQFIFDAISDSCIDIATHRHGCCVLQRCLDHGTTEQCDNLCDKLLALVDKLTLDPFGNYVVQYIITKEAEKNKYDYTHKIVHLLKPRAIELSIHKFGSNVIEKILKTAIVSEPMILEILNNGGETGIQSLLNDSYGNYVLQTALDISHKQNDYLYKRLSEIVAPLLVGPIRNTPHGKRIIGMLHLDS
Kind of data set: Mg; RNA-MaP; 20 mM Na-HEPES pH 7.4, 30 mM KOAc, 0.75 mM MgCl2, 0.1% Tween-20, 5% glycerol, 0.1 mg/mL BSA, 2 mM DTT; 25 C; 0.0125-409.6 nM protein. The following applies: tags: N-His6-TEV cleaved; C-SNAP kept, Cy3B-labelled; label: tethered on chip by stalled RNA polymerase.
As usually defined, the Kd is the constant that tells how readily two partners part at equilibrium. A lower Kd goes with higher affinity. As for UCUCUUAGUGUAUAUAUAUCUCUU (ssRNA) [Id_i_S1_P3E.2_K3.1_C3.2_[C-2A]_[T-1G]_H3.1_A3.1_F3.1_T3.2], binding was characterised by a dissociation constant (Kd) of 14.6 nM.
UCUCUUGCUGUAUAUAUAUCUCUU (ssRNA) [Id_ii_S1_P3E.2_K3.1_C3.2_[C-2G]_[T-1C]_H3.1_A3.1_F3.1_T3.2] had a Kd of 7.65 nM.
UCUCUUUGUAUAAUGUCUCUU (ssRNA) [Ic_S1_P4E.1_K4.1_C4.1_H4.1_A4.1_[T7A]_F4.1_[A9G]_T4.1] registered a Kd of 6.03 nM.
Take UCUCUUUGUAUAAUCUCUCUU (ssRNA) [Ic_S1_P4E.1_K4.1_C4.1_H4.1_A4.1_[T7A]_F4.1_[A9C]_T4.1]: the Kd was found to be 15.8 nM.
As for B1, the affinity, expressed as Kd, was 432 nM.
B2 displayed a Kd of 126 nM.
The molecule B3 gave a Kd of 849 nM.
The figure for B4 is 18 nM; for B5 it is 662 nM.
B6 registered a Kd of 463 nM.
The result for B7 reads 190 nM; that for B8, 72.8 nM.
For the molecule B9, binding was characterised by a dissociation constant (Kd) of 172 nM.
Consider B10, for which the Kd turned out to be 3.61 nM.
With B11, the Kd was determined as 6.59 nM.
Turning to B12, binding was characterised by a dissociation constant (Kd) of 233 nM.
B13 displayed a Kd of 976 nM.
B14 gave a Kd of 16.9 nM.
In turn, B15 displayed a dissociation constant (Kd) of 2.48 nM.
For B16, binding was put at a Kd of 26.1 nM.
Regarding B17, the Kd worked out at 55.6 nM.
With B18, the Kd turned out to be 144 nM.
For B19, binding was characterised by a dissociation constant (Kd) of 10.9 nM.
B20 registered a Kd of 10.1 nM.
The result for B21 reads 342 nM; that for B22, 27.2 nM; that for B23, 28.6 nM.
